B1: Septin-4 (Homo sapiens), O43236-6 (parent)
chain: MIKRFLEDTTDDGELSKFVKDFSGNASCHPPEAKTWASRPQVPEPRPQAPDLYDDDLEFRPPSRPQSSDNQQYFCAPAPLSPSARPRSPWGKLDPYDSSEDDKEYVGFATLPNQVHRKSVKKGFDFTLMVAGESGLGKSTLVNSLFLTDLYRDRKLLGAEERIMQTVEITKHAVDIEEKGVRLRLTIVDTPGFGDAVNNTECWKPVAEYIDQQFEQYFRDESGLNRKNIQDNRVHCCLYFISPFGHGYGPSLRLLAPPGAVKGTGQEHQGQGCH
partner: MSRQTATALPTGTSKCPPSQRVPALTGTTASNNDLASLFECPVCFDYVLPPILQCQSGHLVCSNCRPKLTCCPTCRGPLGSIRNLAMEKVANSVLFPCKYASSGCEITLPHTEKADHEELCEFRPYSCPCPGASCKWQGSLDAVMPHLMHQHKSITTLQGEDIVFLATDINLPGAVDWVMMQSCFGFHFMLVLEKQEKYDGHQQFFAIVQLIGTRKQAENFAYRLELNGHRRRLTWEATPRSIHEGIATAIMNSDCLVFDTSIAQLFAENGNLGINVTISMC

Variants of: B1
Conditions: with siah1_human SIAH1, Q8IUQ4
MIKRFLEDTTDDGELSKFVKDFSGNASCHPPEAKTWASRAQAPAPAPQAPDLYDDDLEFRPPSRPQSSDNQQYFCAPAPLSPSARPRSPWGKLDPYDSSEDDKEYVGFATLPNQVHRKSVKKGFDFTLMVAGESGLGKSTLVNSLFLTDLYRDRKLLGAEERIMQTVEITKHAVDIEEKGVRLRLTIVDTPGFGDAVNNTECWKPVAEYIDQQFEQYFRDESGLNRKNIQDNRVHCCLYFISPFGHGYGPSLRLLAPPGAVKGTGQEHQGQGCH [P40A;V42A;E44A;R46A] was tested, and the “effect of a mutation on the interaction” value was “disrupting interaction”. With MIKRFLEDTTDDGELSKFVKDFSGNASCHPPEAKTWASRPQAPAPAPQAPDLYDDDLEFRPPSRPQSSDNQQYFCAPAPLSPSARPRSPWGKLDPYDSSEDDKEYVGFATLPNQVHRKSVKKGFDFTLMVAGESGLGKSTLVNSLFLTDLYRDRKLLGAEERIMQTVEITKHAVDIEEKGVRLRLTIVDTPGFGDAVNNTECWKPVAEYIDQQFEQYFRDESGLNRKNIQDNRVHCCLYFISPFGHGYGPSLRLLAPPGAVKGTGQEHQGQGCH [V42A;E44A;R46A] the “effect of a mutation on the interaction” value was “disrupting interaction”.

Source: IntAct's records for PubMed 21185211
